Source: patent US9561272B2, “Compositions and methods for modulating immune responses” (The University of Queensland, priority 2006, dated 2017)

B1: Siah2 (protein, UniProt O43255 1-324, looked up)
E3 ubiquitin-protein ligase …: MSRPSSTGPSANKPCSKQPPPQPQHTPSPAAPPAAATISAAGPGSSAVPAAAAVISGPGGGGGAGPVSPQHHELTSLFECPVCFDYVLPPILQCQAGHLVCNQCRQKLSCCPTCRGALTPSIRNLAMEKVASAVLFPCKYATTGCSLTLHHTEKPEHEDICEYRPYSCPCPGASCKWQGSLEAVMSHLMHAHKSITTLQGEDIVFLATDINLPGAVDWVMMQSCFGHHFMLVLEKQEKYEGHQQFFAIVLLIGTRKQAENFAYRLELNGNRRRLTWEATPRSIHDGVAAAIMNSDCLVFDTAIAHLFADNGNLGINVTISTCCP
B2: PIAS3 (protein, UniProt Q9Y6X2 1-628, looked up)
E3 SUMO-protein ligase PIAS3: MAELGELKHMVMSFRVSELQVLLGFAGRNKSGRKHELLAKALHLLKSSCAPSVQMKIKELYRRRFPRKTLGPSDLSLLSLPPGTSPVGSPGPLAPIPPTLLAPGTLLGPKREVDMHPPLPQPVHPDVTMKPLPFYEVYGELIRPTTLASTSSQRFEEAHFTFALTPQQVQQILTSREVLPGAKCDYTIQVQLRFCLCETSCPQEDYFPPNLFVKVNGKLCPLPGYLPPTKNGAEPKRPSRPINITPLARLSATVPNTIVVNWSSEFGRNYSLSVYLVRQLTAGTLLQKLRAKGIRNPDHSRALIKEKLTADPDSEVATTSLRVSLMCPLGKMRLTVPCRALTCAHLQSFDAALYLQMNEKKPTWTCPVCDKKAPYESLIIDGLFMEILSSCSDCDEIQFMEDGSWCPMKPKKEASEVCPPPGYGLDGLQYSPVQGGDPSENKKKVEVIDLTIESSSDEEDLPPTKKHCSVTSAAIPALPGSKGVLTSGHQPSSVLRSPAMGTLGGDFLSSLPLHEYPPAFPLGADIQGLDLFSFLQTESQHYGPSVITSLDEQDALGHFFQYRGTPSHFLGPLAPTLGSSHCSATPAPPPGRVSSIVAPGGALREGHGGPLPSGPSLTGCRSDIISLD
B3: ovalbumin (protein, UniProt P01012 2-386, looked up)
Ovalbumin: GSIGAASMEFCFDVFKELKVHHANENIFYCPIAIMSALAMVYLGAKDSTRTQINKVVRFDKLPGFGDSIEAQCGTSVNVHSSLRDILNQITKPNDVYSFSLASRLYAEERYPILPEYLQCVKELYRGGLEPINFQTAADQARELINSWVESQTNGIIRNVLQPSSVDSQTAMVLVNAIVFKGLWEKAFKDEDTQAMPFRVTEQESKPVQMMYQIGLFRVASMASEKMKILELPFASGTMSMLVLLPDEVSGLEQLESIINFEKLTEWTSSNVMEERKIKVYLPRMKMEEKYNLTSVLMAMGITDVFSSSANLSGISSAESLKISQAVHAAHAEINEAGREVVGSAEAGVDAASVSEEFRADHPFLFCIKHIATNAVLFFGRCVSP
notes: model antigen
B4: FITC-OVA: fluorescein isothiocyanate conjugated to ovalbumin (conjugate, UniProt P01012 2-386, looked up)
Ovalbumin: B3 Ovalbumin
modifications: FITC label
notes: fluorescein isothiocyanate conjugated to ovalbumin
B5: Secretory leukoprotease inhibitor (SLPI) (protein, UniProt P03973 26-132, looked up)
Antileukoproteinase: SGKSFKAGVCPPKKSAQCLRYKKPECQSDWQCPGKKRCCPDTCGIKCLDPVDTPNPTRRKPGKCPVTYGQCLMLNPPNFCEMDGQCKRDLKCCMGMCGKSCVSPVKA
B6: NRF (NF-κB repression factor) (protein, UniProt O15226 1-690, looked up)
NF-kappa-B-repressing factor: MEKILQMAEGIDIGEMPSYDLVLSKPSKGQKRHLSTCDGQNPPKKQAGSKFHARPRFEPVHFVASSSKDERQEDPYGPQTKEVNEQTHFASMPRDIYQDYTQDSFSIQDGNSQYCDSSGFILTKDQPVTANMYFDSGNPAPSTTSQQANSQSTPEPSPSQTFPESVVAEKQYFIEKLTATIWKNLSNPEMTSGSDKINYTYMLTRCIQACKTNPEYIYAPLKEIPPADIPKNKKLLTDGYACEVRCQNIYLTTGYAGSKNGSRDRATELAVKLLQKRIEVRVVRRKFKHTFGEDLVVCQIGMSSYEFPPALKPPEDLVVLGKDASGQPIFNASAKHWTNFVITENANDAIGILNNSASFNKMSIEYKYEMMPNRTWRCRVFLQDHCLAEGYGTKKTSKHAAADEALKILQKTQPTYPSVKSSQCHTGSSPRGSGKKKDIKDLVVYENSSNPVCTLNDTAQFNRMTVEYVYERMTGLRWKCKVILESEVIAEAVGVKKTVKYEAAGEAVKTLKKTQPTVINNLKKGAVEDVISRNEIQGRSAEEAYKQQIKEDNIGNQLLRKMGWTGGGLGKSGEGIREPISVKEQHKREGLGLDVERVNKIAKRDIEQIIRNYARSESHTDLTFSRELTNDERKQIHQIAQKYGLKSKSHGVGHDRYLVVGRKRRKEDLLDQLKQEGQVGHYELVMPQAN
B7: SIRT1 Deacetylase overexpression (protein, UniProt Q96EB6 2-747, looked up)
NAD-dependent protein …: ADEAALALQPGGSPSAAGADREAASSPAGEPLRKRPRRDGPGLERSPGEPGGAAPEREVPAAARGCPGAAAAALWREAEAEAAAAGGEQEAQATAAAGEGDNGPGLQGPSREPPLADNLYDEDDDDEGEEEEEAAAAAIGYRDNLLFGDEIITNGFHSCESDEEDRASHASSSDWTPRPRIGPYTFVQQHLMIGTDPRTILKDLLPETIPPPELDDMTLWQIVINILSEPPKRKKRKDINTIEDAVKLLQECKKIIVLTGAGVSVSCGIPDFRSRDGIYARLAVDFPDLPDPQAMFDIEYFRKDPRPFFKFAKEIYPGQFQPSLCHKFIALSDKEGKLLRNYTQNIDTLEQVAGIQRIIQCHGSFATASCLICKYKVDCEAVRGDIFNQVVPRCPRCPADEPLAIMKPEIVFFGENLPEQFHRAMKYDKDEVDLLIVIGSSLKVRPVALIPSSIPHEVPQILINREPLPHLHFDVELLGDCDVIINELCHRLGGEYAKLCCNPVKLSEITEKPPRTQKELAYLSELPPTPLHVSEDSSSPERTSPPDSSVIVTLLDQAAKSNDDLDVSESKGCMEEKPQEVQTSRNVESIAEQMENPDLKNVGSSTGEKNERTSVAGTVRKCWPNRVAKEQISRRLDGNQYLFLPPNRYIFHGAEVYSDSEDDVLSSSSCGSNSDSGTCQSPSLEEPMEDESEIEEFYNGLEDEPDVPERAGGAGFGTDGDDQEAINEAISVKQEVTDMNYPSNKS
B8: Uteroglobin (protein, UniProt P11684 22-91, looked up)
Uteroglobin: EICPSFQRVIETLLMDTPSSYEAAMELFSPDQDMREAGAQLKKLVDTLPQKPRESIIKLMEKIAQSSLCN

How the values were obtained:
[1] = Entrapment efficiency of NF-κB inhibitor and antigen in liposomes (% EE); type: physicochemical; conditions: EPC liposomes; for entrapment efficiency of protein antigen in liposomes: freeze-thawing cycle repeated 5 times; for entrapment efficiency of NF-κB inhibitor in liposomes: after removal of non-entrapped drug
Procedure: Entrapment efficiency of protein following this process was typically at least 20%, approximately 60% for Bay and greater than 80% for both Quecertin and Curcumin. Empty, NF-κB inhibitor or protein only liposomes were prepared as above, by omitting the relevant bioactive/s. Following removal of non-entrapped NF-κB inhibitor and antigen, the amount of NF-κB inhibitor and antigen entrapped in liposome could be quantified by assay method. The entrapment efficiency was expressed as: [formula] […] The resulting solution was then kept at −20° C. After 30 minutes, the sample was centrifuged at maximum speed at 4° C. for 10 minutes (EBA 12R centrifuge, Hettich Zentrifugen, Germany) to remove precipitated protein. The concentration of Bay 11-7082 in the resulting supernatant was then assayed and calculated based on the established calibration (with consideration to the dilutions performed) (data not shown). […] The concentration of either quercetin or curcumin in the resulting solution was then assayed and calculated based on the established calibration curves (with consideration to the dilutions performed). […] The quantity of model antigen entrapped in liposomes was determined by a standard bicinchoninic acid (BCA) protein assay with slight modification. Briefly, liposomes loaded with OVA or mBSA were lysed using ethanol or iso-propanol at 20-fold dilution, respectively, and then stored at −20° C. After 30 minutes, the sample was centrifuged at maximum speed at 4° C. for 10 minutes (EBA 12R centrifuge, Hettich Zentrifugen, Germany). The supernatant containing lipid and NF-κB inhibitor was discarded. The protein pellet was then placed in an Alpha 2-4 LD Freeze-drier (Alpha 2-4 LD Freeze-drier, Martin Christ, Germany) to remove remaining solvent. One hundred μL of 2.5% w/v sodium dodecyl sulfate (SDS) solution (for OVA) or water (for mBSA) was added to redissolve the protein pellet. SDS was required for aiding to re-dissolve OVA pellet. The resulting protein solution was mixed with 2 mL of BCA solution (Pierce Biotechnology Inc., USA) and incubated at 37° C. for 30 minutes. After incubation, the absorbance of the solution was measured using a Cary 50 UV-VIS spectrophotometer (Varian, Calif., USA) at a wavelength of 562 nm. The concentration of OVA and mBSA was calculated on the basis of calibration curves established using a series of known concentrations of either OVA or mBSA solution ranging from 0.25 mg/mL to 2 mg/mL.

[2] = cited from earlier work
NF-κB = conditions: Table 3, miscellaneous inhibitors of NF-κB; step of NF-κB function inhibited, per the cited reference; cited from earlier work
[3] = previous experiment, thin film method without freeze-thawing, same EPC concentration (Copland 2003); cited from earlier work

Row | Molecule | Effect or point of inhibition (NF-κB) | further results
1 | methylated bovine serum albumin [mBSA] |  | entrapment efficiency of protein antigen in liposomes [1]: approximately 25%
2 | Cc1ccc(S(=O)(=O)/C=C/C#N)cc1 [Bay 11-7082, E3((4-methylphenyl)-sulfonyl)-2-propenenitrile, reference compound] |  | entrapment efficiency of NF-κB inhibitor in liposomes [1]: around 60%; entrapment efficiency of NF-κB inhibitor in liposomes ([1]; listed as Bay): approximately 60%; log P [2]: 1.63
3 | B1 | DNA binding | 
4 | B2 | Transactivation | 
5 | B3 |  | entrapment efficiency of protein antigen in liposomes [1]: ~20%
6 | B4 |  | entrapment efficiency of FITC-OVA in liposomes [3]: less than 5%
7 | B5 | DNA binding | 
8 | B6 | Transactivation | 
9 | B7 | DNA binding | 
10 | B8 | DNA binding | 
